B1: mouse TRIM56 coiled-coil domain (residues 215-303) (domain or fragment, UniProt Q80VI1 215-303, looked up)
chain: GLEELLAGVDSNLVELEATRVAEKEALALLREQAASVGTQVEEAAERILKSLLAQKQEVLGQLRALVEAAEEATRERLTKIERQEQVAK
B2: mouse TRIM56 RING domain (residues 2-88) (domain or fragment, UniProt Q80VI1 2-88, looked up)
chain: NSKVSSPTLLEALSSDFLACKICLEQLHTPKTLPCLHTYCQDCLAQLDIGGQVRCPECREIVPVPAEGVAAFKTNFFVNGLLDLVKA
B3: FLAG-tagged full-length mouse TRIM56, wild type (natural protein, UniProt Q80VI1 1-734, looked up)
chain: MNSKVSSPTLLEALSSDFLACKICLEQLHTPKTLPCLHTYCQDCLAQLDIGGQVRCPECREIVPVPAEGVAAFKTNFFVNGLLDLVKARAPGDVHSGKPTCALCPLVGGKSSGGPATARCLDCADDLCQACADGHRCSRQTHKHRVVDLVGYRAGWYDEEARERQASQCPQHPGEALCFLCQPCSQLLCKDCRLGPHIDHPCLPLAEAVRSRKPGLEELLAGVDSNLVELEATRVAEKEALALLREQAASVGTQVEEAAERILKSLLAQKQEVLGQLRALVEAAEEATRERLTKIERQEQVAKAAAAFARRVLSLGLEAEILSLEGAITQRLRQLQDAPWTSGPTRCVLPQLELHPGLEDKNCHLLRLIFEEPKQSPKDSGKGGAGTQGGDEAQGQGDDRTKIGKQGGAQPLTPKEGKDQNPQEDDGVFIERGNRPNKKKKCKGRGKSVSREPSPILRPNLEGSGLLPRPVFSWSFPTRMPGDKRSPRITGLCPYGPQEILVADEQNRVLKRFSLNGDYKGTVQVPEGCSPCSVAALQNAVAFSANAKLYLVSPDGEIQWRRSLSLTQSSHAVAAMPCGDRVAVSVAGHVEVYKKDGSLATRFIPGGKASRGQRALVFLTTSPQGNFVGSDWQQNSVVFCDGLGQVIWEYKGPGLHGCQPGSVSVDKKGYIFLTLREVNKVVILDPKGSLLGDFLTAYHGLEKPRVTTMVDGKYLVVSLSNGTIHVFRVRFPDS
B4: mouse TRIM56 coiled-coil domain mutant (L244A, V251A, V255A, I262A, L266A, Q269A, V273A, Q276A, L277A, L280A, R291A) (domain or fragment, UniProt Q80VI1 215-303, looked up)
chain: GLEELLAGVDSNLVELEATRVAEKEALALAREQAASAGTQAEEAAERALKSALAAKQEALGAARAAVEAAEEATREALTKIERQEQVAK

Legend:
SEC-MALS = target: the molecule itself; assay: SEC-MALS
cross-linking = target: the molecule itself; assay: cross-linking

Protein | stoichiometry N (SEC-MALS) | stoichiometry N (cross-linking)
B1 | 4 | 
B2 | 2 | 
B3 |  | 4
B4 | 2 | 

Reference: paper PMC10165346 (Computational and Structural Biotechnology Journal, 2023)
